Data: patent US20110038869A1 (Genmab, published 2011)

Assays:
[1] = biological target: T1, full length CD32b2 on transfected IIA1.6 cells (human, UniProt P31994-2 43-291); test: flow cytometry on IIA1.6-CD32b2 cells
T1 construct: whole, on cells; also called IIA1.6-CD32b2
T1 sequence (looked up): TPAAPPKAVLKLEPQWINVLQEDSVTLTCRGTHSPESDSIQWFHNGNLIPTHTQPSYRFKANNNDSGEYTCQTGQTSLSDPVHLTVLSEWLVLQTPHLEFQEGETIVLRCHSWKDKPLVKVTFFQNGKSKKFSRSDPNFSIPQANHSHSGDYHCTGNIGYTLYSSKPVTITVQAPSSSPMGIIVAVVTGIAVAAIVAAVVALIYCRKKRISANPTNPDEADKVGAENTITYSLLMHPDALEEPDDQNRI
Experimental: After harvesting and counting, IIA1.6 cells stably transfected with full length CD32a and CD32b (van den Herik-Oudijk et al., 1994), control IIA1.6 cells and Daudi-luc cells were resuspended in PBS (1×10⁶ cells/ml). Cells were put in 96-well V-bottom plates (100 μl/well) and washed twice with FACS buffer (PBS supplemented with 0.1% BSA and 0.02% Na-azide). Thereafter, 50 μl of serially diluted HuMab in FACS buffer was added to the cells and incubated for 30 minutes at 4° C. After washing three times with FACS buffer, 50 μl of phycoerythrin (PE)-conjugated rabbit anti-human IgG (Jackson ImmunoResearch Europe), diluted 1:200 in FACS buffer, was added. After 30 minutes at 4° C. (in the dark), cells were washed three times, and specific binding of the HuMabs was detected by flow cytometry on a FACSCalibur (BD Biosciences). […] Binding curves were analyzed using non-linear regression (sigmoidal dose-response with variable slope) using GraphPad Prism V4.03 software (GraphPad Software, San Diego, Calif., USA).
To analyze binding of anti-CD32b HuMabs to CD32b1 and CD32b2, IIA1.6 cells transfected with full length CD32b1 or CD32b2 (van den Herik-Oudijk et al., 1994) were prepared as described supra. The assay was performed as described supra. Flow cytometry was performed on a FACS Canto II (BD Biosciences).

biotinylated CD32bECDHis [2] = biological target: T2, biotinylated CD32bECDHis (human, UniProt P31994 43-223, limits assumed, biotinylated (sites not given)); test: competition ELISA, competitor 063
T2 sequence (looked up): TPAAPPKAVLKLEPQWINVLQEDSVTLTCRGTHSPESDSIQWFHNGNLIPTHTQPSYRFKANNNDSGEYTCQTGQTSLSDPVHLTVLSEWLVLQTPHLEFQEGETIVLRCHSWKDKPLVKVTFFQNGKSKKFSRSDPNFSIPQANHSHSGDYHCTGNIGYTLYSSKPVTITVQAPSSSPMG
Experimental: (§1) ELISA wells were coated overnight at 4° C. with anti-CD32b HuMabs serially diluted in PBS. The ELISA wells were washed with PBS, blocked for one hour at room temperature with 2% (v/v) chicken serum (Gibco, Paisley, Scotland) in PBS and washed again with PBS. Subsequently, the immobilized antibodies were incubated with biotinylated CD32bECDHis serially diluted in PBSTC. After washing with PBS/Tween, bound biotinylated CD32bECDHis was incubated with Streptavidin-poly-HRP (Sanquin, Amsterdam, The Netherlands) for 1 hr at RT an the reaction was developed as described supra.
(§2) To this end, ELISA wells coated with anti-CD32b HuMabs were incubated in the presence of an excess of CD32b-specific antibody and the predetermined concentration of biotinylated CD32bECDHis in fluid phase. The reaction was developed as described.

biotinylated CD32bECDHis [3] = biological target: T2, biotinylated CD32bECDHis; test: competition ELISA, competitor 016
Experimental: as §1, §2

biotinylated CD32bECDHis [4] = biological target: T2, biotinylated CD32bECDHis; test: competition ELISA, competitor 2B6
Experimental: as §1, §2

biotinylated CD32bECDHis [5] = biological target: T2, biotinylated CD32bECDHis; test: competition ELISA, competitor 038
Experimental: as §1, §2

biotinylated CD32bECDHis [6] = biological target: T2, biotinylated CD32bECDHis; test: competition ELISA, competitor 053
Experimental: as §1, §2

biotinylated CD32bECDHis [7] = biological target: T2, biotinylated CD32bECDHis; test: competition ELISA, competitor 024
Experimental: as §1, §2

biotinylated CD32bECDHis [8] = biological target: T2, biotinylated CD32bECDHis; test: competition ELISA, competitor 020
Experimental: as §1, §2

biotinylated CD32bECDHis [9] = biological target: T2, biotinylated CD32bECDHis; test: competition ELISA, competitor 026
Experimental: as §1, §2

biotinylated CD32bECDHis [10] = biological target: T2, biotinylated CD32bECDHis; test: competition ELISA, competitor 034
Experimental: as §1, §2

biotinylated CD32bECDHis [11] = biological target: T2, biotinylated CD32bECDHis; test: competition ELISA, competitor 028
Experimental: as §1, §2

biotinylated CD32bECDHis [12] = biological target: T2, biotinylated CD32bECDHis; test: competition ELISA, competitor 022
Experimental: as §1, §2

CD32bECDHis = biological target: T3, CD32bECDHis (human, UniProt P31994 43-223, limits assumed); test: TR-FRET competition against HuMab-KLH-AlexaFluor 647 (N = 2)
T3 construct: Produced in HEK-293F cells; also called extracellular domain of CD32b with C-terminal His tag; soluble CD32b
T3 sequence (looked up): T2 sequence (looked up)
Source text: To study the interaction of anti-CD32b HuMabs with CD32b and CD32a in more detail TR-FRET technology was applied. To this end, CD32bECDHis and CD32aECDHis were labeled with a fluorescent donor molecule directed against the histidine tag (Anti-6×His Europium3+, PerkinElmer, Boston Mass.).
Briefly, all dilutions were made in 0.5× Lance detection buffer (PerkinElmer, Boston Mass.) supplemented with 0.2% BSA (obtained via dilution of 7.5% BSA Stabilizer solution, cat: CR84-100, PerkinElmer) and 0.03% (v/v) Tween-20 (Riedel de Haen, Seelze, Germany). CD32bECDHis and CD32aECDHis were diluted to 0.5 μg/ml. […] Anti-6×His Europium3+ (PerkinElmer, Boston Mass.) was diluted to 0.15 μg/ml. […] After overnight incubation at 4° C. in the dark, fluorescence was measured using an EnVision 2101 Multilabel reader (PerkinElmer, Boston, Mass.) applying the following settings; Lance/Delfia dual mirror, emission filter 615-665 nm, excitation filter 320 nm, delay time 60 μs, window 100 μs, 100 flashes, 2000 μs per cycle and bidirectional row-by-row reading. Binding curves were analyzed using non-linear regression (sigmoidal dose-response with variable slope) using GraphPad Prism V4.03 software (GraphPad Software, San Diego, Calif., USA).

- EC50 [1]: 0.069 µM
- % residual binding (biotinylated CD32bECDHis [2]): 89%
- % residual binding (biotinylated CD32bECDHis [3]): 98%
- % residual binding (biotinylated CD32bECDHis [4]): 90%
- % residual binding (biotinylated CD32bECDHis [5]): 98%
- % residual binding (biotinylated CD32bECDHis [6]): 90%
- % residual binding (biotinylated CD32bECDHis [7]): 56%
- % residual binding (biotinylated CD32bECDHis [8]): 83%
- % residual binding (biotinylated CD32bECDHis [9]): 83%
- % residual binding (biotinylated CD32bECDHis [10]): 23%
- % residual binding (biotinylated CD32bECDHis [11]): 75%
- % residual binding (biotinylated CD32bECDHis [12]): 63%
- IC50 (CD32bECDHis): 0.00045 µM
B1: Antibody 034 (antibody, human IgG1, V domains shown)
VH: EVQLLESGGGLVQPGGSLRLSCAASGFTFSNFVMSWVRQAPGKGLEWVSGISGSGGNTDHADSVKGRFTISRDNSKNTVYLQMNSLRAEDTAVYYCAKDSGGLFDYWGLGTLVTVSS
VL: not shown
notes: Human antibody; also called HuMab 034
